Laboratory results: patent US12570711B2, “Platforms for co-stimulation, novel car designs and other enhancements for adoptive cellular therapy” (Angeles Therapeutics, Inc., priority 2017, dated 2026)

How the values were obtained:
RAJI-Luc cells = experiment: NSG mice xenografted with RAJI-Luc cells, CD19-CAR T cells with FKBP-fusion modules, with or without AP20187; type: in vivo, mouse; settings: AP20187 40 μg every day for 10 days intraperitoneal
Experimental: T cells expressing the CAR and these accessory modules are tested using in vitro assays in the absence and presence of the dimerizer AP20187 (100 nM). […] Half the mice in each group (n =6) are administered 40 μg of AP20187 every day for 10 days by intraperitoneal injection as described previously (Chinnery et al, J Immunol 2009; 182:2738-2744).

human MPL [1] = target: T1, human MPL (Homo sapiens, UniProt P40238); experiment: Jurkat-NFAT-EGFP (J-N-G) reporter: EGFP induction upon co-culture with HEL cells; type: cell-based; settings: 4 h
T1 construct: endogenous in cells; host or cells: HEL-92.1.7 (HEL) cells
T1 sequence (P40238 26-635): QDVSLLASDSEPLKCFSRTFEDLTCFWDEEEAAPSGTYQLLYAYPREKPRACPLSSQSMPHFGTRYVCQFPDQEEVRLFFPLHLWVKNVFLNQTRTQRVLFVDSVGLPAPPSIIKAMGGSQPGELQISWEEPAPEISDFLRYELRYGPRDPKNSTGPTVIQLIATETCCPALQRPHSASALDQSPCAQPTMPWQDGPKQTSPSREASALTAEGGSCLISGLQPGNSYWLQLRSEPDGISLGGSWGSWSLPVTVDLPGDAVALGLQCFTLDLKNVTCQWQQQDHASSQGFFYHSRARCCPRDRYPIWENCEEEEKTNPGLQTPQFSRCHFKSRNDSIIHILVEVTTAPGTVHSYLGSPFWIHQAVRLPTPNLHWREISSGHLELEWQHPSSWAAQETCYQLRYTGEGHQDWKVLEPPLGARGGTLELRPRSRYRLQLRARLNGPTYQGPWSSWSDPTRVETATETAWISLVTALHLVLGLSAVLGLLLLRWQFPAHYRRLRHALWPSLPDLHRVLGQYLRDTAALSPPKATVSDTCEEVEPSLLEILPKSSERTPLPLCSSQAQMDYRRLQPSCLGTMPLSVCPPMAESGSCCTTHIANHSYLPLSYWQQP
Description: Jurkat cell line (clone E6-1) engineered with a NFAT-dependent EGFP (or GFP) reporter gene was a gift from Dr. Arthur Weiss at University of California San Francisco and have been described to study CAR-signaling ((Wu, C Y et al., Science 350:293-302, 2015). Jurkat cells were maintained in RPMI-1640 medium supplemented with 10% FBS, penicillin and streptomycin.
The murine monoclonal antibody 161 targets human MPL (Thrombopoietin receptor o TPO-R). To generate a CAR targeting MPL but with reduced immunogenicity, sequence of the scFV fragment comprising the antigen binding domain of the murine 161 antibody was humanized. […] Jurkat-NFAT-EGFP (J-N-G) cells were stably transduced with the lentivirus encoding the humanized MPL-hu-161-2 CAR construct. The parental and CAR-expressing Jurkats were subsequently cocultured with HEL cells and induction of EGFP expression monitored by FACS analysis after 4 h.
The murine monoclonals 175 and 111 also bind human MPL. […] The experiment is repeated as in the preceding example.
The sequence of these TFP CAR constructs is shown in SEQ ID NO: 3526 to 3533. […]
Several Ab-TCR are constructed targeting MPL based on murine 161 scFV as the antigen binding domain. […] T cells expressing MPL Ab-TCRs are shown to induce lysis of HEL-GLuc cells as measured by increase in GLuc activity. […]

human MPL [2] = target: T1, human MPL; experiment: NFAT-driven GFP expression and IL2 production of parental and TCR-deficient J-N-G cells exposed to HEL.92.1.7 cells; type: cell-based; settings: MPL-specific TFP-expressing J-N-G cells with the corresponding TCR chain knocked out; HEL.92.1.7 co-culture
Description: Jurkat-NFAT-GFP (J-N-G) cells (T cell lymphoma) are infected with lentiviral vectors expressing gRNAs targeting TCRα and TCRβ1/β2 constant chains and coexpressing Streptococcus Pyogenes Cas9. The exemplary gRNA target sequences for TCRα chains are given in SEQ ID NO: 7754 and 7755. The exemplary gRNA target sequences for TCRβ1/β2 chains are given in SEQ ID NO: 7756-7758. In an alternative embodiment, the TCRα and TCRβ1/β2 constant chain loci are targeting using gRNA and TALONs as described in Knipping F et al, Molecular Therapy: Methods & Clinical Development, Vol 4, 2017. J-N-G cells lacking the expression of TCRα or TCRβ1/β2 chains are purified by cell sorting using antibodies directed against TCR/CD3 complex. […] Expression of TFPs in the cells is determined by immunostaining with Protein L staining and by staining with MPL-ECD-GGSG-NLuc-AcVS fusion protein (SEQ ID NO: 4923). J-N-G parental cells show robust TFP expression on cell surface while J-N-G cells lacking TCRα or TCRβ1/β2 chains show poor to absent TFP expression. The different populations of J-N-G cells are exposed to HEL.92.1.7 target cells for 24 hours and examined for increase in NFAT-promoter driven GFP expression and IL2 production. J-N-G parental cells expressing MPL-specific TFPs show marked increase in GFP fluorescence and IL2 secretion upon co-culture with HEL.92.1.7 cells. […]

Molecule: CC[C@H](C(=O)N1CCCC[C@H]1C(=O)O[C@H](CCc1ccc(OC)c(OC)c1)c1cccc(OCC(=O)NCC(CNC(=O)COc2cccc([C@@H](CCc3ccc(OC)c(OC)c3)OC(=O)[C@@H]3CCCCN3C(=O)[C@@H](CC)c3cc(OC)c(OC)c(OC)c3)c2)CN(C)C)c1)c1cc(OC)c(OC)c(OC)c1 [AP20187]
- expansion of CAR-T cells in vivo (RAJI-Luc cells): promote the expansion of CAR-T cells

B1: MPL-hu-161-2: 2nd generation CAR (41BB, CD3z) with humanized 161 scFv hu-161-2 targeting human MPL (protein)
chain: MALPVTALLLPLALLLHAARPDVVMTQSPSSLSASVGDRVTITCMASEDIYIRLAWYQQKPGNAPKLLIYAATSLETGVPSRFSGSGSGTDFTLTISSLQPEDFATYYCQQYWSSPWTFGGGTKVEIKGGGGSGGGGSGGGGSQVQLQESGPGLVKPSQTLSLTCTVSGYSITSDYTWNWIRQPPGNGLEWIGYITYSGSTSYNPSLKSRVLISVDTSKNQVSLKLSSVTAADTAVYYCARLGRRYTMDYWGQGTTVTVSSTREQKLISEEDLAKPTTTPAPRPPTPAPTIASQPLSLRPEACRPAAGGAVHTRGLDFACDIYIWAPLAGTCGVLLLSLVITLYCKRGRKKLLYIFKQPFMRPVQTTQEEDGCSCRFPEEEEGGCELRVKFSRSADAPAYQQGQNQLYNELNLGRREEYDVLDKRRGRDPEMGGKPRRKNPQEGLYNELQKDKMAEAYSEIGMKGERRRGKGHDGLYQGLSTATKDTYDALHMQALPPRSSGSGEGRGSLLTCGDVEENPGPHMTEYKPTVRLATRDDVPRAVRTLAAAFADYPATRHTVDPDRHIERVTELQELFLTRVGLDIGKVWVADDGAAVAVWTTPESVEAGAVFAEIGPRMAELSGSRLAAQQQMEGLLAPHRPKEPAWFLATVGVSPDHQGKGLGSAVVLPGVEAAERAGVPAFLETSAPRNLPFYERLGFTVTADVEVPEGPRTWCMTRKPGA
modifications: Synthetic Polynucleotide encoding a CAR with optional accessory module(s)
- EGFP expression (human MPL [1]): increase in EGFP expression

B2: IgSP-[hTRAC-opt2]: codon optimized TCRα constant chain with signal peptide (protein)
chain: MDWIWRILFLVGAATGAHSFEGGTRFEGGLEIQNPDPAVYQLRDSKSSDKSVCLFTDFDSQTNVSQSKDSDVYITDKTVLDMRSMDFKSNSAVAWSNKSDFACANAFNNSIIPEDTFFPSPESSCDVKLVEKSFETDTNLNFQNLSVIGFRILLLKVAGFNLLMTLRLWSS
- TFP surface expression, GFP expression and IL2 secretion after expression of the constant chain (human MPL [2]): increased expression of TFP on the cell surface and induction of GFP expression and IL2 secretion

B3: IgSP-[hTRBC-opt2]: codon optimized TCRβ constant chain with signal peptide (protein)
chain: MDWIWRILFLVGAATGAHSFEGGTREDLKNVFPPEVAVFEPSEAEISHTQKATLVCLATGFYPDHVELSWWVNGKEVHSGVSTDPQPLKEQPALNDSRYCLSSRLRVSATFWQNPRNHFRCQVQFYGLSENDEWTQDRAKPVTQIVSAEAWGRADCGFTSESYQQGVLSATILYEILLGKATLYAVLVSALVLMAMVKRKDSRG
- TFP surface expression, GFP expression and IL2 secretion after expression of the constant chain (human MPL [2]): increased expression of TFP on the cell surface and induction of GFP expression and IL2 secretion
